The values that follow come from patent US20240216557A1 (Memorial Sloan Kettering, published 2024).

Experiment [1] deals with T1, DLL3 on H82 xenograft tumor cells (UniProt Q9NYJ7 27-618, limits assumed).
T1 construct: whole, on cells; H82 is a human SCLC line by general knowledge
T1 sequence (looked up): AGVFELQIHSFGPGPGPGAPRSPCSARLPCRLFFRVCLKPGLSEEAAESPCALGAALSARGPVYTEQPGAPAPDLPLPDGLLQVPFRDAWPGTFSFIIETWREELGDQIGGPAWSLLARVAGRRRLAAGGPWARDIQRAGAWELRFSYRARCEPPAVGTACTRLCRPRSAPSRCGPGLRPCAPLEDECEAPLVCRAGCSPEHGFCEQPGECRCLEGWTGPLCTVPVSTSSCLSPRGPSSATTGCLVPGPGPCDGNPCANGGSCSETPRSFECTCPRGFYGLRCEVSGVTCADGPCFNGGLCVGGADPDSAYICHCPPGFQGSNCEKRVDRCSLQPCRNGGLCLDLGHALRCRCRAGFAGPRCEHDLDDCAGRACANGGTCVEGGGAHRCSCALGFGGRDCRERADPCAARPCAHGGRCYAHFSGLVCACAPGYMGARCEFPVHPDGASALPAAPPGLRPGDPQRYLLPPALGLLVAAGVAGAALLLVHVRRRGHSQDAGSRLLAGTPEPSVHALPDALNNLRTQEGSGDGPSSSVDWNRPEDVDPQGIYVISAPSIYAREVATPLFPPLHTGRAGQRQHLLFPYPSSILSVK
The experiment is described as follows: immunoPET imaging of athymic mice bearing right flank subcutaneous H82 xenografts after tail vein injection of the Zr-89 labelled antibody; time point not printed on the sheet.
Method: (§1) To ensure adequate binding to DLL3 in vivo, the three antibodies were first bioconjugated to p-SCN-Bn-DFO chelators and then radiolabeled with Zr-89 for injection via tail vein into athymic female mice bearing right flank subcutaneous H82 xenografts (250-300 Ci, 30 μg). ImmunoPET imaging was performed every 24 h until 120 h, when a terminal ex vivo biodistribution study was performed.

Experiment [2] deals with T1, DLL3 on H82 xenograft tumor cells. The experiment is described as follows: immunoPET and ex vivo biodistribution of the Zr-89 labeled antibody in mice with H82 xenografts.
Method: as §1

B1: [89Zr]Zr-DFO-J8 antibody (antibody, V domains shown)
VH: QVHLVQSGAEVKKPGASVKVSCKASGYTFTIYYIHWVRQAPGQGLEWMGIINPSGGSTSYAQKFQGRVTMTRDTSTSTVYMELSSLRSEDTAVYYCSGNDYVDYVTTDYYGMDVWGQGTTVTVSS
VL: DIQMTQSPSSLSASVGDRVTITCRASQGISNYLAWFQQKPGKAPKSLIYAASSLQSGVPSKFSGSGSGTDFTLTISSLQPEDFATYYCQQYNSSPYTFGQGTKLEIK
modifications: p-SCN-Bn-DFO chelator bioconjugated to the antibody (sites not given), radiolabeled with Zr-89
notes: also called J8 (monoclonal IgG4, DFO-conjugated, Zr-89 labeled)
On to B1, for which the binding result in experiment [1] is listed as “binds”.

B2: E9 monoclonal IgG4 antibody bioconjugated to p-SCN-Bn-DFO and radiolabeled with Zr-89 (antibody, V domains shown)
VH: QVQLVQSGAEVKKPGASVKVSCKASGYTFTSYYMHWVRQAPGQGLEWMGVINSSGGSTSYAQKFQGRVTMTRDTSTSTVYMDLSSLRSEDTAVYYCARGYCTNGVYYDEDFDYWGQGTLVTVSS
VL: DIQMTQSPSSLSASVGDRVTITCRASQGISHYLAWFQQKPGKAPTSLIYAASSLQSGVPSKFSGSGSGTDFTLTISSLQPEDFATYYCQQYNSYPLTFGGGTKVEIK
modifications: p-SCN-Bn-DFO chelator bioconjugated to the antibody (sites not given), radiolabeled with Zr-89
Consider B2, for which the binding result in experiment [2] was “binds”.
